# Numbered stars: 1 amine (or outer) side, 2 acyl side, 3 side chain; on linkers, the order of the positions; unused ones are H or OH. Bridge positions count the residues as written; N and C are the ends. Side chains are listed from the residue outwards. Ends that are not written are not given here. * marks the point of attachment. C20 diacid = O=C(O)CCCCCCCCCCCCCCCCCCC(=O)*; γGlu = O=C(O)[C@H](CCC(=O)[*:2])N[*:1]
# T1: human calcitonin receptor (human, UniProt P30988 25-474)
# T1 construct: whole, on cells; also called hCTR; hCT
# T1 sequence (looked up): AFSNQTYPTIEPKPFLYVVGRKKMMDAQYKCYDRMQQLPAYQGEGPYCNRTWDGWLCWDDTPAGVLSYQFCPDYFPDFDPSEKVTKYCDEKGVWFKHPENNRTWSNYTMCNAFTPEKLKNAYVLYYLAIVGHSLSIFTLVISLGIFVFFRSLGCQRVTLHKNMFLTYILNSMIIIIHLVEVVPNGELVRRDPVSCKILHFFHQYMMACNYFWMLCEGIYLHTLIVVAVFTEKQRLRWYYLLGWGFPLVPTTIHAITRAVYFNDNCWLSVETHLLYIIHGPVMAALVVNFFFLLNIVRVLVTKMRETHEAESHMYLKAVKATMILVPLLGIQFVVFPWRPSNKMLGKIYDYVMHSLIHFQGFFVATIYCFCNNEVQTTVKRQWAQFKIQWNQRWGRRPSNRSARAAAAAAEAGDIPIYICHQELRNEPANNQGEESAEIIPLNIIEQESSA
# B1: N^ε1-[(4S)-4-carboxy-4-[[(4S)-4-carboxy-4-(19-carboxynonadecanoylamino)butanoyl]amino]butanoyl]-[Asp14,Arg17,Pro21,Pro26,Asp35]-h-amylin (peptide)
# peptide: K([γGlu-γGlu-C20 diacid])CNTATCATQRLADFLRHSSPNFGAPLSSTNVGSDTY-NH2
# modifications: disulfide 2-7; N-terminus assumed
# SMILES: CC(C)C[C@H](NC(=O)[C@H](CCCNC(=N)N)NC(=O)[C@H](CCC(N)=O)NC(=O)[C@@H](NC(=O)[C@H](C)NC(=O)[C@@H]1CSSC[C@H](NC(=O)[C@@H](N)CCCCNC(=O)CC[C@H](NC(=O)CC[C@H](NC(=O)CCCCCCCCCCCCCCCCCCC(=O)O)C(=O)O)C(=O)O)C(=O)N[C@@H](CC(N)=O)C(=O)N[C@@H]([C@@H](C)O)C(=O)N[C@@H](C)C(=O)N[C@@H]([C@@H](C)O)C(=O)N1)[C@@H](C)O)C(=O)N[C@@H](C)C(=O)N[C@@H](CC(=O)O)C(=O)N[C@@H](Cc1ccccc1)C(=O)N[C@@H](CC(C)C)C(=O)N[C@@H](CCCNC(=N)N)C(=O)N[C@@H](Cc1c[nH]cn1)C(=O)N[C@@H](CO)C(=O)N[C@@H](CO)C(=O)N1CCC[C@H]1C(=O)N[C@@H](CC(N)=O)C(=O)N[C@@H](Cc1ccccc1)C(=O)NCC(=O)N[C@@H](C)C(=O)N1CCC[C@H]1C(=O)N[C@@H](CC(C)C)C(=O)N[C@@H](CO)C(=O)N[C@@H](CO)C(=O)N[C@H](C(=O)N[C@@H](CC(N)=O)C(=O)N[C@H](C(=O)NCC(=O)N[C@@H](CO)C(=O)N[C@@H](CC(=O)O)C(=O)N[C@H](C(=O)N[C@@H](Cc1ccc(O)cc1)C(N)=O)[C@@H](C)O)C(C)C)[C@@H](C)O
# notes: also called compound 1
# B2: N^ε1-[(4S)--4-carboxy-4-(19-carboxynonadecanoylamino)butanoyl]-[Glu14,Arg17,Pro21,Pro27,Pro37]-h-amylin (peptide)
# peptide: K([γGlu-C20 diacid])CNTATCATQRLAEFLRHSSPNFGAIPSSTNVGSNTP-NH2
# modifications: disulfide 2-7; N-terminus assumed
# SMILES: CC[C@H](C)[C@H](NC(=O)[C@H](C)NC(=O)CNC(=O)[C@H](Cc1ccccc1)NC(=O)[C@H](CC(N)=O)NC(=O)[C@@H]1CCCN1C(=O)[C@H](CO)NC(=O)[C@H](CO)NC(=O)[C@H](Cc1c[nH]cn1)NC(=O)[C@H](CCCNC(=N)N)NC(=O)[C@H](CC(C)C)NC(=O)[C@H](Cc1ccccc1)NC(=O)[C@H](CCC(=O)O)NC(=O)[C@H](C)NC(=O)[C@H](CC(C)C)NC(=O)[C@H](CCCNC(=N)N)NC(=O)[C@H](CCC(N)=O)NC(=O)[C@@H](NC(=O)[C@H](C)NC(=O)[C@@H]1CSSC[C@H](NC(=O)[C@@H](N)CCCCNC(=O)CC[C@H](NC(=O)CCCCCCCCCCCCCCCCCCC(=O)O)C(=O)O)C(=O)N[C@@H](CC(N)=O)C(=O)N[C@@H]([C@@H](C)O)C(=O)N[C@@H](C)C(=O)N[C@@H]([C@@H](C)O)C(=O)N1)[C@@H](C)O)C(=O)N1CCC[C@H]1C(=O)N[C@@H](CO)C(=O)N[C@@H](CO)C(=O)N[C@H](C(=O)N[C@@H](CC(N)=O)C(=O)N[C@H](C(=O)NCC(=O)N[C@@H](CO)C(=O)N[C@@H](CC(N)=O)C(=O)N[C@H](C(=O)N1CCC[C@H]1C(N)=O)[C@@H](C)O)C(C)C)[C@@H](C)O
# notes: also called compound 12
# B3: N{Alpha-1}-[(4S)-4-carboxy-4-(19-carboxynonadecanoylamino)butanoyl]-[Glu14,Arg17,Pro21,Pro27,Lys34]-h-amylin (peptide)
# peptide: {C20 diacid-γGlu}-KCNTATCATQRLAEFLRHSSPNFGAIPSSTNVGKNTY-NH2
# modifications: disulfide 2-7
# SMILES: CC[C@H](C)[C@H](NC(=O)[C@H](C)NC(=O)CNC(=O)[C@H](Cc1ccccc1)NC(=O)[C@H](CC(N)=O)NC(=O)[C@@H]1CCCN1C(=O)[C@H](CO)NC(=O)[C@H](CO)NC(=O)[C@H](Cc1c[nH]cn1)NC(=O)[C@H](CCCNC(=N)N)NC(=O)[C@H](CC(C)C)NC(=O)[C@H](Cc1ccccc1)NC(=O)[C@H](CCC(=O)O)NC(=O)[C@H](C)NC(=O)[C@H](CC(C)C)NC(=O)[C@H](CCCNC(=N)N)NC(=O)[C@H](CCC(N)=O)NC(=O)[C@@H](NC(=O)[C@H](C)NC(=O)[C@@H]1CSSC[C@H](NC(=O)[C@H](CCCCN)NC(=O)CC[C@H](NC(=O)CCCCCCCCCCCCCCCCCCC(=O)O)C(=O)O)C(=O)N[C@@H](CC(N)=O)C(=O)N[C@@H]([C@@H](C)O)C(=O)N[C@@H](C)C(=O)N[C@@H]([C@@H](C)O)C(=O)N1)[C@@H](C)O)C(=O)N1CCC[C@H]1C(=O)N[C@@H](CO)C(=O)N[C@@H](CO)C(=O)N[C@H](C(=O)N[C@@H](CC(N)=O)C(=O)N[C@H](C(=O)NCC(=O)N[C@@H](CCCCN)C(=O)N[C@@H](CC(N)=O)C(=O)N[C@H](C(=O)N[C@@H](Cc1ccc(O)cc1)C(N)=O)[C@@H](C)O)C(C)C)[C@@H](C)O
# notes: also called compound 36
# B4: N^ε1-[(4S)-4-carboxy-4-[[(4S)-4-carboxy-4-(19-carboxynonadecanoylamino)butanoyl]amino]butanoyl]-[Asp14,Arg17,Pro22,Pro26,Asp35]-h-amylin (peptide)
# peptide: K([γGlu-γGlu-C20 diacid])CNTATCATQRLADFLRHSSNPFGAPLSSTNVGSDTY-NH2
# modifications: disulfide 2-7; N-terminus assumed
# SMILES: CC(C)C[C@H](NC(=O)[C@H](CCCNC(=N)N)NC(=O)[C@H](CCC(N)=O)NC(=O)[C@@H](NC(=O)[C@H](C)NC(=O)[C@@H]1CSSC[C@H](NC(=O)[C@@H](N)CCCCNC(=O)CC[C@H](NC(=O)CC[C@H](NC(=O)CCCCCCCCCCCCCCCCCCC(=O)O)C(=O)O)C(=O)O)C(=O)N[C@@H](CC(N)=O)C(=O)N[C@@H]([C@@H](C)O)C(=O)N[C@@H](C)C(=O)N[C@@H]([C@@H](C)O)C(=O)N1)[C@@H](C)O)C(=O)N[C@@H](C)C(=O)N[C@@H](CC(=O)O)C(=O)N[C@@H](Cc1ccccc1)C(=O)N[C@@H](CC(C)C)C(=O)N[C@@H](CCCNC(=N)N)C(=O)N[C@@H](Cc1c[nH]cn1)C(=O)N[C@@H](CO)C(=O)N[C@@H](CO)C(=O)N[C@@H](CC(N)=O)C(=O)N1CCC[C@H]1C(=O)N[C@@H](Cc1ccccc1)C(=O)NCC(=O)N[C@@H](C)C(=O)N1CCC[C@H]1C(=O)N[C@@H](CC(C)C)C(=O)N[C@@H](CO)C(=O)N[C@@H](CO)C(=O)N[C@H](C(=O)N[C@@H](CC(N)=O)C(=O)N[C@H](C(=O)NCC(=O)N[C@@H](CO)C(=O)N[C@@H](CC(=O)O)C(=O)N[C@H](C(=O)N[C@@H](Cc1ccc(O)cc1)C(N)=O)[C@@H](C)O)C(C)C)[C@@H](C)O
# notes: also called compound 3
# Target: T1, human calcitonin receptor
# Experiment: SPA competition binding, membranes with human calcitonin receptor, displacement of 125I-calcitonin (Assay VII)
# Procedure, shortened: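 BHK hCTR membranes 35 ng/μL + SPA beads 0.05 mg/well; buffer 50 mM Hepes pH 7.4, 1 mM CaCl2, 5 mM MgCl₂, 0.1% OA, 0.02% Tween20. 120 min, 25° C., shaking. Scintillation count; IC50 by one-site binding competition.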
row,IC50,Binder
1,32.5 nM,B1
2,0.353 nM,B2
3,6.3 nM,B3
4,0.305 nM,"K([γGlu-γGlu-C20 diacid])CNTATCATQRLAEFLRHSSPNFGAIPSSTNVGSNTP-NH2 (disulfide 2-7 (inferred), also called compound 13)"
5,19.5 nM,B4

# Target: T1, human calcitonin receptor
# Experiment: ratio of IC50 at hCTR to IC50 at the human amylin receptor (reference)
# Procedure, shortened: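 Competition binding by SPA with cell membranes (35 ng/μL) and SPA beads in 50 mM Hepes pH 7.4 with 1 mM CaCl2, 5 mM MgCl2, 0.1% OA and 0.02% Tween20. Incubated 120 min at 25 °C with shaking, then counted.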
row,Ratio hCT/hAmylin binding,Binder
1,27.6,B1
2,2.5,B2
3,15.7,B3
4,1.2,"K([γGlu-γGlu-C20 diacid])CNTATCATQRLAEFLRHSSPNFGAIPSSTNVGSNTP-NH2 (disulfide 2-7 (inferred), also called compound 13)"
5,17.3,B4

# Reference: patent US20140087995A1 (published 2014)
